The source of these data is the RNAGym collection of RNA variant scans (doi:10.1073/pnas.2313332121).

Fewer inactive variants are shown than the library holds.

To fix the notation:
B1: TPR 5TU (parent)
chain: GGAUCUUCUCGAUCUAACAAAAAAGACAAAUCUGCCACAAAGCUUGAGAGCAUCUUCGGAUGCAGAGGCGGCAGCCUUCGGUGGCGCGAUAGCGCCAACGUUCUCAACUAUGACACGCAAAACGCGUGCUCCGUUGAAUGGAGUUUAUCAUG

The data set covers variants of B1. The experiment in a line: polymerase ribozyme fitness, log enrichment relative to wild type (log ratio); higher = more active; in vitro selection for triplet polymerase activity. The essentials:
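After PCR construction and transcription, each subunit's mutant library from a heterodimeric triplet polymerase ribozyme was annealed with a biotinylated primer, the partner subunit and triplets. Incubation was frozen, at −7 °C, and extended constructs were gel-excised, bound to streptavidin beads and amplified by RT-PCR, in one selection round done in triplicate. Fitness is the logarithm of a genotype's enrichment divided by that of the wild type, from inverse-variance-weighted replicate averages of Illumina-sequenced inputs and outputs. The base of the logarithm is 2, and genotypes needed ≥10 input reads and ≥1 read per output.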
Consider G48A G50U U55A, for which the “polymerase ribozyme fitness (log ratio)” value is -2.15.
A47G C87G C103U A110G: the “polymerase ribozyme fitness (log ratio)” value is at most -4.2.
Next, A47G G59C G62U G83A C87U U101G A138U: at most -4.2; A49C A60G: -3.61.
On to A47U G48U U55A U82G U134C, for which the “polymerase ribozyme fitness (log ratio)” value is -3.1.
Next, A47G G88A C96U A120G G143A: at most -4.2; G48A U53A C85U C118U: -2.36.
Next, A47U U61A C118U: -2.01; A47G G94C: -0.418; G48C G59U G94A A119U: -1.58.
In the case of A47G U102A, the “polymerase ribozyme fitness (log ratio)” value is -0.825.
Consider A47C U77A C79A A89U, for which the “polymerase ribozyme fitness (log ratio)” value was at most -4.2.
Next, A49C A52U C132G: at most -4.2; A47C U56C C93U A106C: -4.09.
Regarding G48U U148C, the “polymerase ribozyme fitness (log ratio)” value is -3.36.
Next, G48U C57U G58C G62C G67A U82A G86A: at most -4.2.
For the variant A47C U148A, the “polymerase ribozyme fitness (log ratio)” value is -3.16.
Next, A47C U148G: -3.89.
Take A47C G83A A122C: the “polymerase ribozyme fitness (log ratio)” value was -1.08.
Next, G48C G62A: -3.59.
With A47U G83C A98U, the “polymerase ribozyme fitness (log ratio)” value is -0.618.
As to G48A C75G U78C, the “polymerase ribozyme fitness (log ratio)” value is at most -4.2.
A47C G81C C87G C96U: the “polymerase ribozyme fitness (log ratio)” value is at most -4.2.
Regarding G48A U61A, the “polymerase ribozyme fitness (log ratio)” value is -2.86.
Next, G48U U55G: -0.894; G48C G50A C54U C85A C129G: at most -4.2; A47U G94A: -0.308.
A47U U82G G84A A97G U102G G136C: the “polymerase ribozyme fitness (log ratio)” value was at most -4.2.
In the case of A49C A66U C75G C87G C93A A98G A115U U127G G152C, the “polymerase ribozyme fitness (log ratio)” value was at most -4.2.
Next, G48C G68A C79U C99A: at most -4.2.
Next, A47C U56A: -0.282; G48U U78A A91U U102G U144C: at most -4.2.
Next, G48C G58C C99G: at most -4.2; A47C U56G C85G C118U A121U U144G: -1.81.
As for G48C C57A C99U U130C, the “polymerase ribozyme fitness (log ratio)” value is -2.37.
As for G48C A89C, the “polymerase ribozyme fitness (log ratio)” value was -0.506.
With A47G A73U, the “polymerase ribozyme fitness (log ratio)” value was -1.81.
Next, A47G C85U: -1.36; A47U C93U C96U G152A: -3.95.
For the variant A47C U61A C85G C108A, the “polymerase ribozyme fitness (log ratio)” value is at most -4.2.
Next, G48C C57A C72G: at most -4.2; A47U U55C G58C: -0.823; G48C G86A G141C U148G G152A: -4.03.
As to G48C G84A G143A, the “polymerase ribozyme fitness (log ratio)” value is -2.38.
Regarding A47U A64G C93A, the “polymerase ribozyme fitness (log ratio)” value was at most -4.2.
In the case of A47U G68A U82A A97G, the “polymerase ribozyme fitness (log ratio)” value was at most -4.2.
Regarding A47G A91G, the “polymerase ribozyme fitness (log ratio)” value is -2.73.
Next, A47G G58C C93A U101G: -3.96; A47G G48A G70A U77G C95U C108G A122U: at most -4.2; A47G C85A C93A A98C A121U: -4.11.
Next, G48C C87A U130G: at most -4.2; A47U G71C G83A C118U: at most -4.2.
Next, G48A C54U G86C A106C: at most -4.2; G48C C85A: -2.58.
Regarding G48C U134A, the “polymerase ribozyme fitness (log ratio)” value was -1.01.
Next, A49C C54U G84A C103U C116G U130G: at most -4.2.
In the case of G48C C75G C87G A91C C103G U134G U135C, the “polymerase ribozyme fitness (log ratio)” value was at most -4.2.
Next, A47U U61G U134A: -3.8; A47C G136A: 0.0265.
As for G48C U61A C93U U151A, the “polymerase ribozyme fitness (log ratio)” value is at most -4.2.
As to G48A C54U G84A G92U C99G U109G G133C, the “polymerase ribozyme fitness (log ratio)” value was at most -4.2.
On to G48U C85U G117U A122U, for which the “polymerase ribozyme fitness (log ratio)” value came to 0.609.
Next, G48U G80U C96G: at most -4.2; A47G U82A A89C C93U: -1.39.
Next, A49C C54U C69A G94A U151C: at most -4.2; A47U U55A C95A A122G: -0.42.
Next, A47G G83C C87G G112U A120C C125A G136U: at most -4.2.
Take G48C C75U G81A G84U A97U G141U A150U: the “polymerase ribozyme fitness (log ratio)” value was at most -4.2.
Next, G48A G62A G68C C105U G126A G136C G141U U145G: at most -4.2; A47G U53C U134G: -3.45; G48A C85U C96A C116G: -2.37.
On to A49C A52G C93U A119U, for which the “polymerase ribozyme fitness (log ratio)” value was at most -4.2.
Next, A47U G50A C129U: -3.09; A47C U82G A110G: -3.62.
On to A47C U104G, for which the “polymerase ribozyme fitness (log ratio)” value is -0.804.
Consider A47G U55A A89C C95U U146A, for which the “polymerase ribozyme fitness (log ratio)” value was -1.95.
For A47G, the “polymerase ribozyme fitness (log ratio)” value was found to be 0.239.
As to A47U, the “polymerase ribozyme fitness (log ratio)” value was -0.143.
Next, G48A C85A: -2.56.
Next, G48A C85U: -2.1; G48A G50A G58C C87G: at most -4.2.
Consider A47G C85U A138G, for which the “polymerase ribozyme fitness (log ratio)” value was -4.18.
Regarding A47G G50U C85G, the “polymerase ribozyme fitness (log ratio)” value was -3.89.
A47G G74A: the “polymerase ribozyme fitness (log ratio)” value is -3.67.
In the case of G48A U53C G92C C95U A98C, the “polymerase ribozyme fitness (log ratio)” value is -1.65.
As to A49C A91C, the “polymerase ribozyme fitness (log ratio)” value was at most -4.2.
Next, A47C U104G G124U: -0.000534; A47U G83A U101C G117U: -0.198; G48A C79U: -3.91.
Next, A49C C54G C79U G88A C95G: at most -4.2.
Next, G48C G50A G81U C95A U146G: -3.35.
Consider A47G A49C U104G, for which the “polymerase ribozyme fitness (log ratio)” value is at most -4.2.
Next, G48A C51A U56A G62C: -3.16; G48A C54G C57U G81A C95U A115U C131A U146G G152U: at most -4.2; A47C G80A C95U U104G A120G: -0.454.
For the variant A47U G50A C87G C105G C114U C129U, the “polymerase ribozyme fitness (log ratio)” value was at most -4.2.
G48A U55G C85G C87G C149G: the “polymerase ribozyme fitness (log ratio)” value is at most -4.2.
Next, G48U G86C: -3.31; G48U C118A: -0.303; A47G G152U: -2.47.
Consider A49C A52G G81A C87U U102C C114G A150G, for which the “polymerase ribozyme fitness (log ratio)” value was at most -4.2.
Next, G48C A89U A106U A107C A120G U139G: at most -4.2; A47U A60U C95U G136A: -1.58.
Regarding G48U C93U C95A A97G A98U G117C, the “polymerase ribozyme fitness (log ratio)” value was -3.43.
Next, G48A G117U: -0.676; A47G A49G G71A C87U A97U A106G A107C U111G U134C: at most -4.2.
As for A47U U56A C85A U104A, the “polymerase ribozyme fitness (log ratio)” value is -2.77.
Regarding A47U G59A C96G, the “polymerase ribozyme fitness (log ratio)” value is -1.05.
Next, G48A A97G: -0.198; A47G C93U: -0.775; G48U C95U: -1.01.
Next, A47U C103G A115G G140C: at most -4.2; G48C C51U C54U C57U U90C A138G U144A: at most -4.2.
Next, A47C G83A: -2.37.
As to G48A A52G, the “polymerase ribozyme fitness (log ratio)” value came out at 0.139.
Turning to A47C G88U, the “polymerase ribozyme fitness (log ratio)” value is -3.96.
Next, A47G U55A G71U C85G C95U: at most -4.2; A47C U56A C85U: -0.721.
Next, A49C A52C G68U G84A G140A: at most -4.2.
G48A A113C U134C A137C G140A U148G: the “polymerase ribozyme fitness (log ratio)” value is at most -4.2.
Next, A47U A64G A138C U144C: at most -4.2; G48U C85A U144C: -2.1.
Consider G48C G59C U82G, for which the “polymerase ribozyme fitness (log ratio)” value worked out at 0.0275.
Next, G48U A49U A98G C116G G133U: at most -4.2.
On to A47G G94U A147G, for which the “polymerase ribozyme fitness (log ratio)” value is at most -4.2.
On to G48A G81U G92U C118A G152C, for which the “polymerase ribozyme fitness (log ratio)” value is at most -4.2.
Next, A47C G83A G92U C108U: at most -4.2; G48C A52C C85G G92C A119U G126A A138U: at most -4.2; A49C C54A: at most -4.2.
As for G48C C118G A120G, the “polymerase ribozyme fitness (log ratio)” value was -3.82.
Next, A47U C93A: -2.17; G48A A52C C105U C108U A137C: at most -4.2.
For A47C G117A, the “polymerase ribozyme fitness (log ratio)” value came out at 0.357.
On to A47C U56A U144C U151G, for which the “polymerase ribozyme fitness (log ratio)” value is at most -4.2.
On to G48A G70A U78G G84U G143U, for which the “polymerase ribozyme fitness (log ratio)” value was at most -4.2.
Regarding G48U C132A U139G, the “polymerase ribozyme fitness (log ratio)” value was -3.31.
Take A47U U148C: the “polymerase ribozyme fitness (log ratio)” value was -2.46.
Turning to G48C A49C, the “polymerase ribozyme fitness (log ratio)” value is -3.92.
Next, G48U U135C G143C: -3.78.
Next, A47G C51U C75U C96A C103U A138G A147C: at most -4.2.
Next, G48C G84A: -3.2; G48U G74A C85G A115C U134A: at most -4.2.
Take A47G U145G: the “polymerase ribozyme fitness (log ratio)” value is -0.0566.
Next, A47G G59A C103A C131U U134C: -2.12; A49C A52G U78C C93G U146C: at most -4.2; A47C U55A: 0.201.
Next, A47C U55G U56C C85U G133C G140C: at most -4.2; A47U U53A G133C: -2.66.
As for G48A C85U C114U A122C, the “polymerase ribozyme fitness (log ratio)” value is -2.44.
Next, G48U C93A: -2.5.
Next, A47G G81C: 0.162; A47U A97G C132U: -2.35; A49C A106U: -3.68.
In the case of A47G U53A C75G U90C, the “polymerase ribozyme fitness (log ratio)” value is at most -4.2.
Next, G48C A52G: -1.29.
Next, A47G C69G: -1.95.
For the variant A47G C69U, the “polymerase ribozyme fitness (log ratio)” value is -1.14.
For A47G G65C A106G A120G, the “polymerase ribozyme fitness (log ratio)” value was -4.14.
Next, A47U A52G U53G U56A U145G: -3.64; A47C U53C C95A U104G A119U G136U: -3.11.
Next, A49C A73G U90C C149U: at most -4.2; A49C C57U A60G C76U C118A: at most -4.2; A47C G59A C85G: -2.62.
Consider A47G G50C U53A A97U G124C, for which the “polymerase ribozyme fitness (log ratio)” value is at most -4.2.
Next, G48C G58U C105G C114G U135C: at most -4.2; A47U G59A G124U: -0.07; A47U G58U G84A C93G U148A: at most -4.2.
